Measurements: patent US6617306B2, “Carrier for in vivo delivery of a therapeutic agent” (priority 1998, dated 2003)
Side chains are listed from the residue outwards. * marks the point of attachment. Biotin = O=C1N[C@H]2[C@H](CS[C@H]2CCCCC(=O)*)N1; cysteamine‑PEG/Lys copolymer = not defined here; PEG/Lys copolymer = not defined here

Legend:
[1] = Release of peptide from PEG/Lys carrier by reductive cleavage of the disulfide linkage with glutathione; type: physicochemical; details: for half-time of release of peptide from carrier: 3 mM glutathione in PBS (pH 7.4), room temperature, cysteamine thiol linker
Experimental: The disulfide linked conjugate, PEG-cysteamine-N-acetyl-Phe-Arg-Arg-Arg-Cys-NH2 (SEQ ID NO:9) was added to a solution of reduced glutathione (3 mM in PBS) to a final peptide concentration of 0.3 mM, and then incubated under N2 at room temperature. A sample was taken at each time point, acidified by adding an aliquot of 5% TFA and applied to a G-75 column in 0.1% TFA (7 ml bed volume) to separate PEG-conjugated peptide from free peptide. Appropriate fractions in the high-molecular-weight region were pooled, and the extent of peptide derivatization at each time point was determined by amino acid analysis. For measuring the release of radiolabeled peptide, each time point aliquot was acidified to pH 3.5 with sulfuric acid. The PEG-conjugated peptide and the free peptide were then separated using ultrafiltration on “CENTRICON-10”. To ensure complete separation, the retentate was diluted and ultrafiltered two more times. Radioactivity in the retentate and combined filtrate was quantitated by scintillation counting.
Release of the peptide, N-acetyl-Phe-Arg-Arg-Arg-Cys-NH2 (SEQ ID NO:9), by reductive cleavage of its disulfide linkage to a carrier of the present invention comprising a PEG/Lys copolymer was evaluated using 3 mM glutathione in PBS (pH 7.4) at room temperature. At each time point, an aliquot was withdrawn and acidified to halt the disulfide interchange reaction. Released peptide was removed from PEG/Lys-peptide conjugate by gel filtration chromatography, and the ratio of PEG (i.e. Lys residues) to peptide (i.e. Phe or Arg residues) was determined by amino acid analysis.
Release kinetics were also studied using the disulfide-linked radiolabeled peptides, N-acetyl-Arg-Lys-Lys-Arg-Arg-Gln-Arg-Arg-Arg-Cys-NH2 (SEQ ID NO:10) and N-acetyl-Arg-Lys-Lys-Arg-Arg-Gln-Arg-Arg-Arg-Lys-(biotin)-Cys-NH2 (SEQ ID NO:3). Released peptide was removed from PEG/Lys-peptide conjugate by ultrafiltration.
Analysis of the release rate of the radiolabeled peptide, N-acetyl-Arg-Lys-Lys-Arg-Arg-Gln-Arg-Arg-Arg-Lys-(biotin)-Cys-NH2 (SEQ ID NO:3) gave a half-time of about 40 min in the presence of 30 mM glutathione (FIG. 6). Since the disulfide cleavage rate is proportional to glutathione concentration^8, the sterically hindered linker has a release rate about 100 times slower than does a carrier of the present invention in which the thiol compound is cysteamine. Thus, the release rate can be readily controlled by selection of a thiol compound having functional groups, wherein the thiol compound is conjugated to the polymer, and conjugated via a disulfide bond to a therapeutic agent.

Tat binding to TAR RNA = assay: TAR-CAT / Tat plasmid transfected Jurkat cells, CAT protein by immunoassay; type: cell-based, HIV-1; details: inhibitor added at 18 h, CAT measured at 42 h
Experimental: FIG. 7 is a graph of the comparison of the inhibition of protein expression in a Jurkat cell line transfected with a TAR-CAT (TAR-Chloramphenicol Acetyl Transferase) plasmid and a Tat-protein plasmid. In this experiment, one group of cells was administered a Tat inhibitory biotinylated polypeptide derivative having a sequence of N-acetyl-Arg-Lys-Lys-Arg-Arg-Gln-Arg-Arg-Arg-Lys-(biotin)-Cys-NH2 (SEQ ID NO:3), and another group of cells was administered the same Tat inhibitory biotinylated peptide derivative conjugated to a carrier of the present invention via a disulfide bond between the sulfur atom of the thiol group of the thiol compound, and the thiol group of the Cys residue located between biotin and the amino group of the Tat inhibitory biotinylated polypeptide derivative of SEQ ID NO:3. […] Cysteamine was the thiol compound conjugated to the polymer. Conjugation of cysteamine to the polymer involved the carboxylic acid group of the lysine incorporated into the copolymer, which was available for reaction. If the polypeptide was successful in inhibiting Tat binding to TAR, CAT […]. […]
Initially, a Jurkat cell line was stably transfected with a TAR-CAT plasmid. […] At t=42 hours, the cells were harvested and CAT protein was measured by immunoassay. […]

Substance	half-time of release of radiolabeled peptide from carrier ([1]; 30 mM glutathione in PBS, sterically hindered linker 1-amino-2-methyl-2-propanethiol)	release rate, times slower than carrier with cysteamine ([1]; cleavage rate taken as proportional to glutathione concentration)	half-time of release of peptide from carrier [1]	increase in potency relative to biotinylated Tat-peptide inhibitor administered alone (Tat binding to TAR RNA)
PEG-1-amino-2-methyl-2-propanethiol-SEQ ID NO:3: radiolabeled SEQ ID NO:3 peptide disulfide-linked to PEG/Lys derivative of sterically hindered 1-amino-2-methyl-2-propanethiol (Ac-RKKRRQRRRK(Biotin)C-NH2; not fully specified (residue 11); printed as N-acetyl-Arg-Lys-Lys-Arg-Arg-Gln-Arg-Arg-Arg-Lys-(biotin)-Cys-NH2; also: acetyl group tritium-labelled, Cys11 disulfide-linked to PEG/Lys carrier bearing 1-amino-2-methyl-2-propanethiol)	about 40 min	about 100 times		
PEG-cysteamine-N-acetyl-Phe-Arg-Arg-Arg-Cys-NH2 (Ac-FRRRC(cysteamine‑PEG/Lys copolymer)-NH2; reading uncertain; also: Cys disulfide-linked to PEG/Lys cysteamine carrier, printed as PEG-cysteamine-N-acetyl-Phe-Arg-Arg-Arg-Cys-NH2) [PEG-cysteamine-SEQ ID NO:9]			about 3 minutes	
PEG-cysteamine-SEQ ID NO:3: SEQ ID NO:3 peptide disulfide-linked via its Cys to the cysteamine-PEG carrier (PEG/lysine copolymer, about 27,000 D) (Ac-RKKRRQRRRKC([cysteamine (disulfide)-PEG/Lys copolymer])-NH2; reading uncertain; also: Lys(biotin), position not given here)			about 3 minutes	about 5 fold
PEG-cysteamine-SEQ ID NO:10: radiolabeled SEQ ID NO:10 peptide disulfide-linked to PEG/Lys copolymer through cysteamine (Ac-RKKRRQRRRC-NH2; not fully specified (residue 10); printed as N-acetyl-Arg-Lys-Lys-Arg-Arg-Gln-Arg-Arg-Arg-Cys-NH2; also: radiolabel)			about 3 minutes	
